What all share (assay): cleavage_in_vitro
Data set [1] has as its system T1, OMNI-43 (Arcobacter sp. SM1702).
T1 sequence: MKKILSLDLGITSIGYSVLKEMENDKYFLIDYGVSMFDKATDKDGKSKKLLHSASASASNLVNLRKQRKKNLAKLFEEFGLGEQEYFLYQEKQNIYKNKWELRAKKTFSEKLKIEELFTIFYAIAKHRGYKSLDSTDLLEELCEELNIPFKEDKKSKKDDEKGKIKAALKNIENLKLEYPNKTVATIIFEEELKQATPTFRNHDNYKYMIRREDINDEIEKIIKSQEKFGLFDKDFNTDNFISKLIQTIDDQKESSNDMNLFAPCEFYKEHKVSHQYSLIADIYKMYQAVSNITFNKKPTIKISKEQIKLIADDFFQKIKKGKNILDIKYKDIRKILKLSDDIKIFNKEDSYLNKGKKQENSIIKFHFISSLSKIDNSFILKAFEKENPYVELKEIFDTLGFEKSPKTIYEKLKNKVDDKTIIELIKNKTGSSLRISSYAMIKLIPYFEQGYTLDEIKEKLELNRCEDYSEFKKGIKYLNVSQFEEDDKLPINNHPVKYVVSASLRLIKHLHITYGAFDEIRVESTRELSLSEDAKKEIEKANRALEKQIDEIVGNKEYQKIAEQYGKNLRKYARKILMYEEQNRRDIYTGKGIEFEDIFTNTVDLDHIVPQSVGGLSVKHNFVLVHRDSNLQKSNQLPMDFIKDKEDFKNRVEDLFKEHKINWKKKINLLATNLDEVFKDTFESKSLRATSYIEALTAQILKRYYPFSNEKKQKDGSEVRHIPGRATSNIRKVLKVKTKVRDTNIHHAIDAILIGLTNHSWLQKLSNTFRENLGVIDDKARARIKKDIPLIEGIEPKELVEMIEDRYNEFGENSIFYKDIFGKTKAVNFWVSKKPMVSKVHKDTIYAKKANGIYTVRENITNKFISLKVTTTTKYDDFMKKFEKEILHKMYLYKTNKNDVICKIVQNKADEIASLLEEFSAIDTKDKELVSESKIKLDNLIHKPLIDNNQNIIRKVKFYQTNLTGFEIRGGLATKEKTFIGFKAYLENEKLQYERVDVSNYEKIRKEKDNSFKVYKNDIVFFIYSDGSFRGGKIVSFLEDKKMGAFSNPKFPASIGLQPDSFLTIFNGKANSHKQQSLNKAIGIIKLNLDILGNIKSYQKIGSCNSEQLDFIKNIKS
As to conditions: TXTL; PAM YAAAR; V1, V2 tested.

Data set [2] concerns T2, OMNI-46 (Carnobacterium funditum).
T2 sequence: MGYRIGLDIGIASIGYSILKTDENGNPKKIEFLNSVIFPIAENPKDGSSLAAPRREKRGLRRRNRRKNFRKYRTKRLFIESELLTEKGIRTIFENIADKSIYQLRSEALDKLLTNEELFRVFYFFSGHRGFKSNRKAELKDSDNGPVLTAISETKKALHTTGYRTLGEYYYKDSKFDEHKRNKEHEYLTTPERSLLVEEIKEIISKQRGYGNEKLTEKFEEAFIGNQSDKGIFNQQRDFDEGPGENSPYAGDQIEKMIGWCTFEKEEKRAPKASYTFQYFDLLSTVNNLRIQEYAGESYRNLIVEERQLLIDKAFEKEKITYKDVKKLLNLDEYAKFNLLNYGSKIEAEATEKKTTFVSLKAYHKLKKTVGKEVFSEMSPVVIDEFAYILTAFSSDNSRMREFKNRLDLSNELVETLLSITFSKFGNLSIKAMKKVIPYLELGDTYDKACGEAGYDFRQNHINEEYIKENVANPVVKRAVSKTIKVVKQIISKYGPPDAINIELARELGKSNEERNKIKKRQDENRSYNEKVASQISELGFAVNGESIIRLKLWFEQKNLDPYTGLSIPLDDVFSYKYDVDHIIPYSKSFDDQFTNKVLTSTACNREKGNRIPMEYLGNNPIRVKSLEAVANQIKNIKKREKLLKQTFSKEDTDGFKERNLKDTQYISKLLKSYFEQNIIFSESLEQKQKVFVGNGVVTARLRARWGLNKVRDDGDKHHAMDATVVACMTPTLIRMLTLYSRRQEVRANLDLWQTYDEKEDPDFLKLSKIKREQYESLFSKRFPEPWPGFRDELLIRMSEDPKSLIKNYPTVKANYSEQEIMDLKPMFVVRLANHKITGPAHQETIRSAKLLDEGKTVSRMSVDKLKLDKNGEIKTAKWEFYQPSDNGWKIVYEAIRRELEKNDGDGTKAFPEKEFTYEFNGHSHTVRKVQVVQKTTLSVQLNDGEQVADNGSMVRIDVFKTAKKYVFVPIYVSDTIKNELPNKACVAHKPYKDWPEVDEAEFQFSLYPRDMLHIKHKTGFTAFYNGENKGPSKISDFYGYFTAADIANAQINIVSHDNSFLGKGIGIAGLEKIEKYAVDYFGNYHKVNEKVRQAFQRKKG
The following applies: TXTL; PAM YAAAR.

For data set [3], the system named is T3, OMNI-42 (Caviibacter abscessus).
T3 sequence: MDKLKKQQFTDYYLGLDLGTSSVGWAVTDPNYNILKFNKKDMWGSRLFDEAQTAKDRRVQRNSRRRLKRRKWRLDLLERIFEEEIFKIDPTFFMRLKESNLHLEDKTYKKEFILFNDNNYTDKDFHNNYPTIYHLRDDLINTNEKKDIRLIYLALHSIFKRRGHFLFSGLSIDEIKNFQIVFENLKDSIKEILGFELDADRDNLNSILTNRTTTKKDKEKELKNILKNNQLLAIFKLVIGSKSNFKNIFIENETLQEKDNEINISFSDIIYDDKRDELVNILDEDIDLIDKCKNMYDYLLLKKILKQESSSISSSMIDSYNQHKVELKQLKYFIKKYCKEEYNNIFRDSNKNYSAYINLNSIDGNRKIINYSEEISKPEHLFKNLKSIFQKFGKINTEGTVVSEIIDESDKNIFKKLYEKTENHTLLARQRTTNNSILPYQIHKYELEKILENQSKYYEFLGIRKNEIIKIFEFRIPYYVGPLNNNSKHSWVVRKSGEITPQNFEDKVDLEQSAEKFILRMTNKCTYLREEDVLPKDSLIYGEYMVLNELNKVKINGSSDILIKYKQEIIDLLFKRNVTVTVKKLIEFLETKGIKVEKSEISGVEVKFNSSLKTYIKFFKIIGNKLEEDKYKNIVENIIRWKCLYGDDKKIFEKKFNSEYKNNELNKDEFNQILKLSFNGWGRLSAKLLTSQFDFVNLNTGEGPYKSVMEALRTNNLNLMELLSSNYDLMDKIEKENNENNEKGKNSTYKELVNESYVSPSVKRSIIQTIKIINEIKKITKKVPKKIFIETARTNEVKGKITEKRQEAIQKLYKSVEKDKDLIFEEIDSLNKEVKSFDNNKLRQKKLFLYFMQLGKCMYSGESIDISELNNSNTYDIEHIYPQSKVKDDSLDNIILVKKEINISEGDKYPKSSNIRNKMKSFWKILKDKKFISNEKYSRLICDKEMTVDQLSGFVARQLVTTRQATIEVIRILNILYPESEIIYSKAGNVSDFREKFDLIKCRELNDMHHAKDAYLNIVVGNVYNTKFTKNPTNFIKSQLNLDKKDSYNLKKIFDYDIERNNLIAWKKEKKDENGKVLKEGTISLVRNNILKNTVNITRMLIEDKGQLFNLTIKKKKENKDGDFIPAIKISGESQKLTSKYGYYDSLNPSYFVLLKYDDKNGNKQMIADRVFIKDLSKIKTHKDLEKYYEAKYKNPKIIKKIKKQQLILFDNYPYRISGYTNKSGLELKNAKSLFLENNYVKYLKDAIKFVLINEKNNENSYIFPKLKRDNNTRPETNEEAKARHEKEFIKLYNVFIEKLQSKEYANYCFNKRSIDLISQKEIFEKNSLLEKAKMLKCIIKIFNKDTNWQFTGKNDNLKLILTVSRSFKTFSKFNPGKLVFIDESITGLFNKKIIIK
As to conditions: TXTL; PAM NNGMM (specific NTGCC); FIG. 3F states V2, table states V1.

In data set [4] the test system is T4, OMNI-44 (Arcobacter mytili).
T4 sequence: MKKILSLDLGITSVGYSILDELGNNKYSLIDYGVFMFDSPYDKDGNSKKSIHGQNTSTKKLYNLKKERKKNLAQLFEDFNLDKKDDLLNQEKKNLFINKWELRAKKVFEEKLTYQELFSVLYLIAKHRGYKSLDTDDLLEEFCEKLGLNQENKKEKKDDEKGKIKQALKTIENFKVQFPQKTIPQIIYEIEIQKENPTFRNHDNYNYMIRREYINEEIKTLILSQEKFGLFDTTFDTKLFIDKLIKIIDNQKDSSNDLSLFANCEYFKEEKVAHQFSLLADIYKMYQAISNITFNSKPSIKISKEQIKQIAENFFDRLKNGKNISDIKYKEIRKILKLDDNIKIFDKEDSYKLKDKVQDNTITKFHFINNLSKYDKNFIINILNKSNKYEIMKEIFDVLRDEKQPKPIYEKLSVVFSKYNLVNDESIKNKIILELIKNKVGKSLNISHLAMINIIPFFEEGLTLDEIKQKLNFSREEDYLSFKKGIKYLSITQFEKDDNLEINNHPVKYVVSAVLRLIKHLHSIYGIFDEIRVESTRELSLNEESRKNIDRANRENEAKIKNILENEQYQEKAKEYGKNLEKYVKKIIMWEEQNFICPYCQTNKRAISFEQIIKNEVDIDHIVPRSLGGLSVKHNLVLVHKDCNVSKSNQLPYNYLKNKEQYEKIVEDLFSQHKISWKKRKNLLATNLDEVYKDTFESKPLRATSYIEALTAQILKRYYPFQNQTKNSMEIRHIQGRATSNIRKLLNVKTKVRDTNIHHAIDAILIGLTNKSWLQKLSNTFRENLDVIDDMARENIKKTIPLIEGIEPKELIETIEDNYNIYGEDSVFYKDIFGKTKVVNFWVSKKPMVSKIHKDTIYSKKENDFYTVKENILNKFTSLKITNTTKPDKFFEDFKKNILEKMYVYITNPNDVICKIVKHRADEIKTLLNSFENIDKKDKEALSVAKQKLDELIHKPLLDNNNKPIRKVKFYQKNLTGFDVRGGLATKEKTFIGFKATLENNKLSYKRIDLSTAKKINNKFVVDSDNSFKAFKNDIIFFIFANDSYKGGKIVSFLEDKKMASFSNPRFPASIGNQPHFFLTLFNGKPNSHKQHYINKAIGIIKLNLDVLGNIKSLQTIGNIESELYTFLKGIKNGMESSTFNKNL
The following applies: TXTL; PAM NRHAA; FIG. 3H states V2, table states V3.

“GGAAGAGCAGAGCCUUGGUCUCGUUUUAAUACCCCUACAAACUGGAAACAGUUUAAUAGGGGUAUUAAACUAAGGUUGCUAUUUUAGCAACUGACUUUAGGCAGUGGUUUCGACCACUUGCCCUUUUUU / GGAAGAGCAGAGCCTTGGTCTCNNNNNNNN / NNNNNNNNGAGACCAAGGCTCTGCTCTTCC [OMNI-43 T2 sgRNA V1 ; pbPOS T2 protospacer 8N PAM library]” returned an activity (1-depletion score) in data set [1] of 0.91.

In the case of “GGAAGAGCAGAGCCUUGGUCUCGCUAUACGUUCCUUACAAAAUCGGGAAACCGACUUUGCAAGGAACGUAUAGUAAAGGGAGUGCUCUGCACUCUCCUGUAAAGCACUAACCCCAUUUUCUUCGGAGAAUGGGGUUAUCUUUUU / GGAAGAGCAGAGCCTTGGTCTCNNNNNNNN / NNNNNNNNGAGACCAAGGCTCTGCTCTTCC [OMNI-46 T2 sgRNA V2 ; pbPOS T2 protospacer 8N PAM library]”, the activity (1-depletion score) in data set [2] is 0.95.

As for “GGAAGAGCAGAGCCUUGGUCUCGUUUAAGAGUUAUGUAAGAAAUUACAUAACGAGUUUAAAUAAAAAUUUAUUGAAAUCGUCAAAUUAUUUUUGACUAGCCUCUUUUUGAAGAGGUUUUUUU / GGAAGAGCAGAGCCTTGGTCTCNNNNNNNN / NNNNNNNNGAGACCAAGGCTCTGCTCTTCC [OMNI-42 T2 sgRNA V2 ; pbPOS T2 protospacer 8N PAM library]”, the activity (1-depletion score) in data set [3] was found to be 0.91.

The sequence “GGAAGAGCAGAGCCUUGGUCUCGUUUUAAUACCCCUAUAAACUACUAGAAAUAGUAGUUUAAUAGGGGUAUUAAACUAAGACUACUUUAAUAGUAGUUGAUUUUAGGAGAUAGUUUUUCUAUCUCCCUUUUU / GGAAGAGCAGAGCCTTGGTCTCNNNNNNNN / NNNNNNNNGAGACCAAGGCTCTGCTCTTCC [OMNI-44 T2 sgRNA V2 ; pbPOS T2 protospacer 8N PAM library]” had an activity (1-depletion score) in data set [4] of 0.96.

The record behind these values is patent US20220213456.
